In article doi:10.1101/2025.06.14.659724:

Target: PSR2-PDF1-Cα heterotrimer (not stated | A. thaliana | human) (UniProt E0W4V5)
Test: cryo-EM structure

PSR2-PDF1-Cα heterotrimer (from UniProt E0W4V5;P67775) (complex)
stoichiometry N: 2
